These results are taken from patent publication US20220242973A1 (Molecular Partners, published 2022).

The target of assay [1] is T1, Recombinant human FAP (fibroblast activation protein) (human, UniProt Q12884 26-760).
T1 sequence (looked up): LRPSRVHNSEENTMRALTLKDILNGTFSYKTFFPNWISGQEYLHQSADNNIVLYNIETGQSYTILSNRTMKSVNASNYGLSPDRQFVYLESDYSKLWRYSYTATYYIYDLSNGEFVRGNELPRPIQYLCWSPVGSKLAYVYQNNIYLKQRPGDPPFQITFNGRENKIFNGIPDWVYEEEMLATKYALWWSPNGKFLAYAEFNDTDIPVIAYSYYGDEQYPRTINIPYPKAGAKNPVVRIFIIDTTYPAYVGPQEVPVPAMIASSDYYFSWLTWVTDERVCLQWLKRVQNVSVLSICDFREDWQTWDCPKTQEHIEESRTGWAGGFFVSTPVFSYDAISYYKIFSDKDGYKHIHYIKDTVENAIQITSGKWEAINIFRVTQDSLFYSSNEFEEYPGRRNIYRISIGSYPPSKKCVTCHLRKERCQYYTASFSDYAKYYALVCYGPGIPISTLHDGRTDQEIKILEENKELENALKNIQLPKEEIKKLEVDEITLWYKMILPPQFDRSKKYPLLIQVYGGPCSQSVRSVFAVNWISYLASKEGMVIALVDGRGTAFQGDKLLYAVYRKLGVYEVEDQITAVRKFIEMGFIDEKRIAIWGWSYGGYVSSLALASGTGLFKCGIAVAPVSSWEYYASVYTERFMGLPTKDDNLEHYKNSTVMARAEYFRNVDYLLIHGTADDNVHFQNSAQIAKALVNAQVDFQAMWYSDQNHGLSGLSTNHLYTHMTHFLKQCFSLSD
Put plainly: cell-based or functional assay.

For assay [2], the target named is T2, Human FAP expressed on the cell surface (WI38, CHO-FAP1.9, U87MG cells) (human, UniProt Q12884 1-760).
T2 construct: whole, on cells; Endogenous on WI38 and U87MG cells; from a human FAP cDNA (OriGene) in CHO-FAP1.9 cells; also called hFAP; FAP+ cells
T2 sequence (looked up): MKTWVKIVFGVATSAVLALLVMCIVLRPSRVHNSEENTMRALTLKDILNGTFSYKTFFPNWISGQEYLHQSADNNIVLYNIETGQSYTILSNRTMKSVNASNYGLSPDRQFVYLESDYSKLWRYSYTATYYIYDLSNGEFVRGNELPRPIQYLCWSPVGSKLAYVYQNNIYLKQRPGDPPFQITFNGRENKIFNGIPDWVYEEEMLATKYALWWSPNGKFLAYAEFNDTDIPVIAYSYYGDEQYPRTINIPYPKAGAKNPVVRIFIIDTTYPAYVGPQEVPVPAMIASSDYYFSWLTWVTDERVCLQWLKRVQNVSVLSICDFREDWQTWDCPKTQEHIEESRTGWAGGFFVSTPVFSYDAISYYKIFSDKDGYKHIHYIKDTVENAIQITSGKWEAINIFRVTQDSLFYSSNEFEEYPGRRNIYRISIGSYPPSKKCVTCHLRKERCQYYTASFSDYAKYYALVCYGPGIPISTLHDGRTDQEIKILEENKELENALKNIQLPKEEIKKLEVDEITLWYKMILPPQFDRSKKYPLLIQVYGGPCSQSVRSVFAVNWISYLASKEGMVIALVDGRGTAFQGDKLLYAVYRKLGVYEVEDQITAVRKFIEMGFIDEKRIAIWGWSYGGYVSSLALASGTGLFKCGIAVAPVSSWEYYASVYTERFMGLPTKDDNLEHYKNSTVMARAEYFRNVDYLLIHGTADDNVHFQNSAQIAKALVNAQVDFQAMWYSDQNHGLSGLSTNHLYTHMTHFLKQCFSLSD
Put plainly: FACS on FAP-expressing WI38 cells, Penta-His AF647 detection. On the procedure:
Using multi-well plates, 20,000 WI38 cells were added per well in 50 μl of PBS. 50 μl of appropriate dilutions (2× dilution steps) of ankyrin repeat protein was then added to the cells and incubated for 30 minutes on ice. After the ankyrin repeat protein-binding reaction, cells were washed twice with PBS. Direct immunofluorescent detection of the His-tagged ankyrin repeat proteins using Penta-His AF647 conjugate (QIAgen) and determination of live cells using LIVE/DEAD™ Fixable Green Dead Cell Stain Kit (ThermoFisher) were then performed together in one step. The Penta-His AF647 conjugate and the LIVE/DEAD™ Fixable Green dye were applied to the cells together in 1/200 (Penta-His) and 1/1000 (LID Fixable) final dilutions and incubated for 20-30 minutes on ice. After washing the cells with PBS, cells were re-suspended in 1× CellFix™ buffer (BD Biosciences) (10× stock was diluted 1/10 in water). The samples were incubated in CellFix™ buffer for 15-20 minutes at RT, then spun down at 400 g for 5 min. Supernatant was discarded and cells were re-suspended in 200 μl PBS and stored at 4° C. until acquisition and FACS analysis. Acquisition and FACS analysis, including the determination of median fluorescence intensity (MFI), were done within 5 days after staining using an AttuneNxT instrument. Binding curves were fitted by non-linear regression curve fitting using GraphPad Prism software (v 7.0.4).
EC₅₀ values were determined using standard procedures known to the person skilled in the art. […] Table 2 provides the EC₅₀ values of selected ankyrin repeat proteins as examples.

The target in assay [3] is T1, Recombinant human FAP (fibroblast …). Put plainly: SPR (ProteOn), human FAP immobilized on GLC chip. On the procedure:
Briefly, human FAP was diluted in 10 mM Na-acetate pH 5.3 buffer and covalently immobilized on a GLC chip (BioRad) to a level of around 2000 resonance units (RU). The interaction of ankyrin repeat protein and hFAP was then measured by injecting 200 μl running buffer (PBS, pH 7.4 containing 0.005% Tween 20®) containing serial dilutions of ankyrin repeat proteins covering a concentration range between 30 nM and 0.5 nM (on-rate measurement), followed by a running buffer flow for at least 25 minutes at a constant flow rate of 100 μl/min (off-rate measurement). The regeneration was performed using 15 μl of 10 mM Glycine pH 2 followed by 15 μl of 124 mM H₃PO₄. The signals (i.e. resonance unit (RU) values) of the interspots and a reference injection (i.e. injection of running buffer only) were subtracted from the RU traces obtained after injection of ankyrin repeat protein (double-referencing). Based on the SPR traces obtained from the on-rate and off-rate measurements, the on- and off-rate of the corresponding ankyrin repeat protein—FAP interaction was determined.
Dissociation constants (KD) were calculated from the estimated on- and off-rates using standard procedures known to the person skilled in the art. […] Table 1 provides the KD values of some selected ankyrin repeat proteins as examples.

B1: DARPin® protein #12 (designed binder)
chain: MRGSHHHHHHGSYPYDVPDYAGSDLGKKLLEAARAGQDDEVRILLAAGADVSAKDQWGWTPLHLAARVGHLEIVEVLLKAGADVNAKDVRGVTPLHLAAFHGHLEIVEVLLKAGADVNAKDYAGHTPLHLAAWQGHLEIIEDLLKAGADVNAQDKSGKTPADLAADAGHEDIAEVLQKLN
In general, EC50 refers to the midpoint of the concentration-response curve. Lower therefore signals a more potent agent. The term Kd denotes the equilibrium constant for the complex coming apart. For the molecule B1, the “FAP activity (%)” value in assay [1] turned out to be 114%. Also, in assay [2], the half-maximal effective concentration (EC50) was 0.789 nM. Moreover, in assay [3], the Kd was found to be 0.194 nM.

B2: DARPin® protein #13 (designed binder)
chain: MRGSHHHHHHGSYPYDVPDYAGSDLGKKLLEAARAGQDDEVRILLAAGADVNAKDDWGWTPLHLAARHGHLEIVEVLLKAGTDVNAKDKRGVTPLHLAAYIGHLEIAEVLLKAGADVNAKDFQGWTPLHLAAVRGHLEIVEVLLKAGADVNAQDKSGKTPADLAADAGHEDIAEVLQKLN
On to B2, for which the “FAP activity (%)” value in assay [1] is 88%. The same molecule came in with a concentration for a half-maximal effect (EC50) in assay [2] of 0.307 nM. Also, in assay [3], the Kd was 0.01 nM.

B3: DARPin® protein #20 (designed binder)
chain: MRGSHHHHHHGSYPYDVPDYAGSDLGEKLLIAALFGQDEEVRILLAAGADVNAKDEWGHTPLHKAALSGHLEIVEVLLKAGADVNAKDQKGSTPLHWAATRGHLEIVEVLLKAGADVNAQDHIGRTPADLAANFGHEDIAEVLQKLN
With B3, the “FAP activity (%)” value in assay [1] was 104%. Also, the dissociation constant Kd in assay [3] is 0.115 nM.

B4: DARPin® protein #16 (designed binder)
chain: MRGSHHHHHHGSYPYDVPDYAGSDLGKKLLEAARAGQDDEVRILMANGTDVNATDMTGRTPLHLAALYGHLEIVEVLLKYGADVNALDKFGITPLHLAAFMGHLEIVEVLLKYGADVNAADLDGRTPLHPTAYRGHLEIVEVLLKNGADVNAQDKFGKTAFDISIDNGNEDLAEILQKLN
On to B4, for which the “FAP activity (%)” value in assay [1] was 97%. In addition, the equilibrium dissociation constant (Kd) in assay [3] turned out to be 0.023 nM.

B5: DARPin® protein #1 (designed binder)
chain: MRGSHHHHHHGSYPYDVPDYAGSDLGKKLLEAARAGQDDEVRILLAAGADVNAKDQYGITPLHLAAFRGHLEIVEVLLKHGAGVNADDMDGRTPLHPAAYKGHLEIVEVLLKNGADVNAQDKFGKTAFDISIDNGNEDLAEILQKLN
On to B5, for which, in assay [1], the “FAP activity (%)” value is 115%. This molecule also had a concentration giving a half-maximal response (EC50) in assay [2] of 3.17 nM. Further, the Kd in assay [3] came out at 3.6 nM.

B6: DARPin® protein #10 (designed binder)
chain: MRGSHHHHHHGSYPYDVPDYAGSDLGKKLLEATRAGQDDEVRILLAAGADVNAKDEYGITPLHLAAFRGHLEIVEVLLKHGADVNAIDYNGRTPLHPAAYSGHLEIVEVLLKYGADVNAQDKFGKTAFDISIDNGNEDLAEILQKLN
In the case of B6, in assay [1], the “FAP activity (%)” value came to 120%. Further, the EC50 in assay [2] stood at 0.512 nM. Moreover, in assay [3], the Kd is 10.4 nM.

B7: DARPin® protein #5 (designed binder)
chain: MRGSHHHHHHGSYPYDVPDYAGSDLGYTLLEAARRGQDDEVRELLKAGADVNAKDTIGYTPLHYAAQVGHLEIVEVLLKAGADVNAKDTQGITPLHVAAATGHLEIVEVLLKAGADVNAQDSKGRTPADLAAEQGHEDIAEVLQKLN
Take B7: the “FAP activity (%)” value in assay [1] was 103%. The molecule further displayed a concentration giving a half-maximal response (EC50) in assay [2] of 0.654 nM.

B8: DARPin® protein #25 (designed binder)
chain: MRGSHHHHHHGSYPYDVPDYAGSDLGYKLLEAARRGQDDEVRELLKAGADVNAKDVIGYTPLHYAASEGHLEIVEVLLKAGADVNAKDTKGITPLHVAASTGHLEIVEVLLKAGADVNAQDLRGYTPADLAARQGHEDIGEVLQKLN
B8: the “FAP activity (%)” value in assay [1] is 110%.

B9: DARPin® protein #11 (designed binder)
chain: MRGSHHHHHHGSYPYDVPDYAGSDLGKKLLEAARAGQDDEVRILLAAGADVNAKDTWGWTPLHLAAKSGHLEIVEVLLKAGADVNAKDYHGVTPLHLATFWGHLEIVEVLLKAGADVNAKDWYGETPLHLAAIRGHLEIVEVLLKAGADVNAQDKSGKTPADLAADAGHEDIAEVLQKLN
Take B9: the “FAP activity (%)” value in assay [1] is 117%. Besides, a half-maximal effect in assay [2] (EC50) was put at 0.523 nM. The Kd in assay [3] was determined as 0.057 nM.

B10: DARPin® protein #6 (designed binder)
chain: MRGSHHHHHHGSYPYDVPDYAGSDLGKKLLEAARAGQDDEVRELLKAGADVNAKDEWGKTPLHYAAALGHLEIVEVLLKAGADVNAKDQYGATPLHIAAFAGHLEIVEVLLKAGADVNAKDAWGFTPLHLAATRGHLEIVEVLLKAGADVNAQDKSGKTPADLAADAGHEDIVEVLQKLN
As for B10, the “FAP activity (%)” value in assay [1] was determined as 146%. Besides, the equilibrium dissociation constant (Kd) in assay [3] stood at 0.303 nM.

B11: DARPin® protein #31 (designed binder)
chain: MRGSHHHHHHGSYPYDVPDYAGSDLGKKLLEAARAGQDDEVRELLKAGADVNAKDEFGKTPLHLAAALGHLEIVEVLLKAGADVNAKGLWGETPLHVAAFAGHLEIVEVLLKAGADVNAKDTYGYTPLHLAASRGHLEIVEVLLKAGADVNAQDKSGKTPADLAADAGHEDIAEVLQKLN
Regarding B11, in assay [1], the “FAP activity (%)” value is 123%. In assay [3], the equilibrium dissociation constant (Kd) was 0.097 nM.

B12: DARPin® protein #8 (designed binder)
chain: MRGSHHHHHHGSYPYDVPDYAGSDLGKKLLEAARAGQDDEVRELLKAGADVNAKDQHGKTPLHYAAALGHLEIVEVLLKAGADVNAKDRWGATPLHIAAFAGHLEIVEVLLKAGADVNAKDEVGWTPLHLAARFGHLEIVEVLLKAGADVNAQDKSGKTPADLAADAGHEDIVEVLQKLN
With B12, the “FAP activity (%)” value in assay [1] worked out at 97%. Besides, the Kd in assay [3] amounted to 0.12 nM.

B13: DARPin® protein #17 (designed binder)
chain: MRGSHHHHHHGSYPYDVPDYAGSDLGKKLLEAARAGQDDEVRILMANGADVNATDLMGRTPLHLAASRGHLEIVEVLLKNGADVNADDKYGITSLHLAAFLGHLEIVEVLLKYGADVNAIDFDGRTPLHPAAYRGHLEIVEVLLKHGADVNAQDKFGQTAFDISIDNGNEDLAEILQKLN
With B13, in assay [1], the “FAP activity (%)” value worked out at 96%. Also, the Kd in assay [3] amounted to 0.063 nM.
